The test addresses … (SEQ ID NO: 3) in complex with HLA-B*44:03 (human). The test can be described thus: cell-based or functional assay.

B1: TCR6 (TCR, V domains shown, not shown: a dimerising Fc or GST)
V domain 1: QKEVEQNSGPLSVPEGAIASLNCTYSDRGSQSFFWYRQYSGKSPELIMFIYSNGDKEDGRFTAQLNKASQYVSLLIRDSQPSDSATYLCAVSSNTGKLIFGQGTTLQVKP
V domain 2: DAGVIQSPRHEVTEMGQEVTLRCKPISGHNSLFWYRQTMMRGLELLIYFNNNVPIDDSGMPEDRFSAKMPNASFSTLKIQPSEPRDSAVYFCASKWGQGAGDTQYFGPGTRLTVL
For B1, the EC50 killing capacity was 1.4 E:T ratio.

For the origin of these results see patent publication EP4328239A1 (Max-Delbrück-Centrum für Molekulare Medizin in der …, dated 2024).
